According to paper PMC7264160:

Target: Nascent polypeptide-associated complex (NAC) protein of Picrophilus torridus (Picrophilus torridus)
Test: SEC; HiPrep S-200 HR column; elution compared with protein standards run on this column

- stoichiometry N: 2
Substance: Nascent polypeptide-associated complex (NAC) protein of Picrophilus torridus (natural protein)
